Test results from US20240158538A1.

Target: VISTA (analyte in the BLI assay with VSIG-3) (Homo sapiens (Human)) (UniProt Q9H7M9)
Experiment: BLI (Octet QK384), 100 nM Fc-tagged VSIG-3 on anti-human Fc biosensor, VISTA from 3000 nM in solution

Kd: 5.28 µM
Substance: Fc-tagged VSIG-3 (from UniProt Q5DX21 23-241) (Fc fusion)
